The supplement of paper PMC10065799, “High-throughput profiling of sequence recognition by tyrosine kinases and SH2 domains using bacterial peptide display” (eLife, 2023)

Columns and labels:
Fyn = Fyn (UniProt P06241); assay: phosphorylation enrichment, bacterial display (enrichment ratio); higher = better substrate or ligand; peptides without Tyr show the background
FGFR3 = FGFR3 (UniProt P22607); assay: as above
c-Abl (mouse) = assay: as above
EPHB2 = EPHB2 (UniProt P29323); assay: as above
Fes = Fes (UniProt P07332); assay: as above
MERTK = MERTK (UniProt Q12866); assay: as above
MERTK, sequence (Q12866 whole entry, looked up): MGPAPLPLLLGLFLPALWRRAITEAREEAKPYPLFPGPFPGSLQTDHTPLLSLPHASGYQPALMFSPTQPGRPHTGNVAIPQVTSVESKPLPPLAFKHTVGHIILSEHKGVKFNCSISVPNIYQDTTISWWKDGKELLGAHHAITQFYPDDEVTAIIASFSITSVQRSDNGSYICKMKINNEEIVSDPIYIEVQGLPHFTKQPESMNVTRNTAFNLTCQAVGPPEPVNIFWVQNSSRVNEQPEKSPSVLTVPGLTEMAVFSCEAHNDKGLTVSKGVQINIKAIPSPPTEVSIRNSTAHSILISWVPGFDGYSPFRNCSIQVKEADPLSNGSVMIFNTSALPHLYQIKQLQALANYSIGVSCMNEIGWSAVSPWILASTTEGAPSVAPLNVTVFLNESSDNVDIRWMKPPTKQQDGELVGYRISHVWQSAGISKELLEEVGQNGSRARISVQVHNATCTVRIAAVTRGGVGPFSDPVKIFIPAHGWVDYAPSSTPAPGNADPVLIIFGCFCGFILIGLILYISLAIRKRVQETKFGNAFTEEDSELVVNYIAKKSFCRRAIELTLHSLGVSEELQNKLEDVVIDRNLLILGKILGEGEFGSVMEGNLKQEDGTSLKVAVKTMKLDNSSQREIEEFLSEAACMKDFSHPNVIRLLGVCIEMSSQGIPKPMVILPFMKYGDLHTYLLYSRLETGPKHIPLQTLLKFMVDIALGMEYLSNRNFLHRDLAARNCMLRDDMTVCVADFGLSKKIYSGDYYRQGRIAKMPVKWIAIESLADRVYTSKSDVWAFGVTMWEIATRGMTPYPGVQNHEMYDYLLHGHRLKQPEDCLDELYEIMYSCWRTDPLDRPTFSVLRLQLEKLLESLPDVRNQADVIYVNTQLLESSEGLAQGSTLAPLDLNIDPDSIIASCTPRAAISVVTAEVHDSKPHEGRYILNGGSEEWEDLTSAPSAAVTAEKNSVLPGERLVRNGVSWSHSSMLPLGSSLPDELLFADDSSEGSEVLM

AncSZ = assay: as above
FGFR1 = FGFR1 (UniProt P11362); assay: as above
Jak2 = Jak2 (UniProt O60674); assay: as above
c-Src = assay: as above
Fer (mouse) = assay: as above
Hck = Hck (UniProt P08631); assay: as above
Hck, sequence (P08631 whole entry, looked up): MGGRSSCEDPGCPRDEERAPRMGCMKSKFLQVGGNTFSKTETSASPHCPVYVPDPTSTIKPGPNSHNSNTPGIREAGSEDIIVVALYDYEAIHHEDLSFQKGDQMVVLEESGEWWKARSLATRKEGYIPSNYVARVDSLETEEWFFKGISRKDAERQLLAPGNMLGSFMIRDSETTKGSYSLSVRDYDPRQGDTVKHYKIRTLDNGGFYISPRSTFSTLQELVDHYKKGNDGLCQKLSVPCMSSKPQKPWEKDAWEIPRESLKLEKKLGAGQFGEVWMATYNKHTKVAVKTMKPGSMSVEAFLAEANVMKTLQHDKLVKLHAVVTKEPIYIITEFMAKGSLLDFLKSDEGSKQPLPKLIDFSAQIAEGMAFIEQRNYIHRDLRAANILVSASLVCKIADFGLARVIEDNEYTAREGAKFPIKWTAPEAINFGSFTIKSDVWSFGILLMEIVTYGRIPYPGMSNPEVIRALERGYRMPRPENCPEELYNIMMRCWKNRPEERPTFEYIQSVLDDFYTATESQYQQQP

EPHB1 = EPHB1 (UniProt P54762); assay: as above
EPHB1, sequence (P54762 whole entry, looked up): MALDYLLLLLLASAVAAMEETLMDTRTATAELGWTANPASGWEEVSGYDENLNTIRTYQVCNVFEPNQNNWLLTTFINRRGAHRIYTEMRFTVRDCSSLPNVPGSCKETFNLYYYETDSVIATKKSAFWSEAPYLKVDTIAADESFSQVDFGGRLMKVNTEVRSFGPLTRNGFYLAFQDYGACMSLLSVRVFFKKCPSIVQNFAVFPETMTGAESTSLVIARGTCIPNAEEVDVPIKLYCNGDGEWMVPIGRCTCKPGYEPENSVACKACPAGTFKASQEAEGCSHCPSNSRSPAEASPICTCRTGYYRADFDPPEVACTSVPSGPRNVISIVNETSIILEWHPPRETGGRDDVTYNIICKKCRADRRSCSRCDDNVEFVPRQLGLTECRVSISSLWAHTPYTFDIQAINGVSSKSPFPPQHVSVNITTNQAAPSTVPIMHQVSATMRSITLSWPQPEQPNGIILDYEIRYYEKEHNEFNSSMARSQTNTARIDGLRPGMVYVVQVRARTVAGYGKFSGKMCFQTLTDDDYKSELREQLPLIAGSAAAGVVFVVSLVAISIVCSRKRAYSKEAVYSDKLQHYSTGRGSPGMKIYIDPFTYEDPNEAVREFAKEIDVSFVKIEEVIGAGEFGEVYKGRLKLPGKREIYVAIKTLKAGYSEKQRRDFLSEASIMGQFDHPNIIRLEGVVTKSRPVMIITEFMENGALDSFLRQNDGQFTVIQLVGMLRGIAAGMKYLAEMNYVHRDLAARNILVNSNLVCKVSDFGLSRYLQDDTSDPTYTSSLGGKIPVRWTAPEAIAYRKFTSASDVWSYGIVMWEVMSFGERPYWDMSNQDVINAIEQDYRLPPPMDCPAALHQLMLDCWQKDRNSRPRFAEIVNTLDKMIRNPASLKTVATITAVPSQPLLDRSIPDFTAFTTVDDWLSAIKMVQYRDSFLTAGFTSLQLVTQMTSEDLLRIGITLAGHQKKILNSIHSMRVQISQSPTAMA

SHP2-C SH2 = assay: SH2 binding enrichment of the phosphorylated peptide, bacterial display (enrichment ratio); higher = better substrate or ligand; peptides without Tyr show the background
Grb2 SH2 = Grb2 SH2 (UniProt P62993); assay: as above
c-Src SH2 = assay: as above
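For SH2 binding enrichment of the phosphorylated peptide, bacterial display in this document: peptide library displayed on the E. coli surface as eCPX fusions, selected cells deep-sequenced, score is each peptide's frequency after selection divided by its frequency in the input.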
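For phosphorylation enrichment, bacterial display in this document: 11-residue human phosphosite peptides and single-mutation variants displayed on the E. coli surface, counted by deep sequencing, each peptide's frequency after selection divided by its frequency in the unselected input library; frequency after pTyr selection over input frequency; kinase dosed for 20-30% of maximal phosphorylation in three min.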

FGFR3, sequence (P22607 whole entry, looked up): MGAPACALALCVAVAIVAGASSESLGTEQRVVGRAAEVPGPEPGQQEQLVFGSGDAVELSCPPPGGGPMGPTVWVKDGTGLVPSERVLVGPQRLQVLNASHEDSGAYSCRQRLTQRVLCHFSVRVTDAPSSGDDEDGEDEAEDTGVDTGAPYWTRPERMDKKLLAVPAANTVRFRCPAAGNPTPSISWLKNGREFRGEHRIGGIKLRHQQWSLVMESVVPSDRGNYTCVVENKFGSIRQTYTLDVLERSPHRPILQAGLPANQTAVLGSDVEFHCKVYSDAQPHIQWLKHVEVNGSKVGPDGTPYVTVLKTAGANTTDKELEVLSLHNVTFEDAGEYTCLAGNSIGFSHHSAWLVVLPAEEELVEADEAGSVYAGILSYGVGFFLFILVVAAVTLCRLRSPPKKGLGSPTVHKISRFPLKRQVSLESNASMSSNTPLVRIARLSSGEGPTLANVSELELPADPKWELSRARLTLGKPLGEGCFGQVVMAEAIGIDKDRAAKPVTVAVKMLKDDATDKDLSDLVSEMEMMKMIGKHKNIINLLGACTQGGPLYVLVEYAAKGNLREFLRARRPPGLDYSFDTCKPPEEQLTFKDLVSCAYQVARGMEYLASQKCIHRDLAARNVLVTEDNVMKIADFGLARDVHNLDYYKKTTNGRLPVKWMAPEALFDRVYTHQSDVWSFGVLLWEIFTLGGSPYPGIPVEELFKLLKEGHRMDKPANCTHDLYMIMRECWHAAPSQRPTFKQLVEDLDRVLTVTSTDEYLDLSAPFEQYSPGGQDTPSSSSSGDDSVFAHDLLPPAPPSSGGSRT
EPHB2, sequence (P29323 whole entry, looked up): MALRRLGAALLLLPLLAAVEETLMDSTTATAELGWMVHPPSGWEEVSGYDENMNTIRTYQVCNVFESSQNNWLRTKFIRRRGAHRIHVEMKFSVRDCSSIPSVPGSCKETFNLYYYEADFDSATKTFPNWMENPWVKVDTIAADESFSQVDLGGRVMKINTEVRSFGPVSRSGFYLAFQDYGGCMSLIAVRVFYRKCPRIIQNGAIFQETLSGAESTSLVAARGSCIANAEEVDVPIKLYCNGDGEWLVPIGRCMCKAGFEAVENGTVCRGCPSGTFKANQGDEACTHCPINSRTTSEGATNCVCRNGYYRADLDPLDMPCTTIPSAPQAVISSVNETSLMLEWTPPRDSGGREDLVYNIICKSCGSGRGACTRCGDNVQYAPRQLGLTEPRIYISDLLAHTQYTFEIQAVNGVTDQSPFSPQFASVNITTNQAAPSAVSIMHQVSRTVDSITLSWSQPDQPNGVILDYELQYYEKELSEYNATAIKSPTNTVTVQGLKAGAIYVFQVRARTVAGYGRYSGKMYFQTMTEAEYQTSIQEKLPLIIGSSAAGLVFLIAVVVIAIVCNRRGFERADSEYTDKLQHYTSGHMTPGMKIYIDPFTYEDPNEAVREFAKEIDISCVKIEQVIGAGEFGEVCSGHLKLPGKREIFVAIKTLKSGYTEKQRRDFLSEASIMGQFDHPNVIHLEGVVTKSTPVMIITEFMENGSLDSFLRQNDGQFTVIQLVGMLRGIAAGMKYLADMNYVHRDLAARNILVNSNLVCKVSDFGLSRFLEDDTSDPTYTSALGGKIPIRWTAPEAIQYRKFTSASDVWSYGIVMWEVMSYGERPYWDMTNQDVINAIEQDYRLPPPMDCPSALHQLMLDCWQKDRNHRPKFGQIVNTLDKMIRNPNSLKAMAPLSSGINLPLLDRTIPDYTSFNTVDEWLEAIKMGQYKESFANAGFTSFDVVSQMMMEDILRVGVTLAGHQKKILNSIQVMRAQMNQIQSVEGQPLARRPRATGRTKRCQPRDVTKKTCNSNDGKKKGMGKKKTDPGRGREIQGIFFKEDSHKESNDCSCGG
Fyn, sequence (P06241 whole entry, looked up): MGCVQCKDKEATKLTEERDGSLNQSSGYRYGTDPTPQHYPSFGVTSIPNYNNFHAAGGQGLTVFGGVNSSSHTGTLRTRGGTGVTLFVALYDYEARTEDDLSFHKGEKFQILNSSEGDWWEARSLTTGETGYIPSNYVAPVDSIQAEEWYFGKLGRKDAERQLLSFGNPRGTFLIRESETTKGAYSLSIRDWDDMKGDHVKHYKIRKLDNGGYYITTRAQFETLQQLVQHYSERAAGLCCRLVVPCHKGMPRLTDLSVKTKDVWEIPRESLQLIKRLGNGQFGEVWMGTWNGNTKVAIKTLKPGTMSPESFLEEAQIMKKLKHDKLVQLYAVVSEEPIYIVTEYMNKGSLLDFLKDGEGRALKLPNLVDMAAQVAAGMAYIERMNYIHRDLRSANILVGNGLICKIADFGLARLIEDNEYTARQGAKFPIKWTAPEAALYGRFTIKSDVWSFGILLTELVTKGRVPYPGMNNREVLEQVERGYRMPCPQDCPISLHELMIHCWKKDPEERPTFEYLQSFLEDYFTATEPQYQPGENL

Sequence | phosphorylation enrichment (Fyn) | phosphorylation enrichment (FGFR3) | phosphorylation enrichment (c-Abl (mouse)) | phosphorylation enrichment (EPHB2) | phosphorylation enrichment (Fes) | phosphorylation enrichment (MERTK) | phosphorylation enrichment (AncSZ) | phosphorylation enrichment (FGFR1) | phosphorylation enrichment (Jak2) | phosphorylation enrichment (c-Src) | phosphorylation enrichment (Fer (mouse)) | phosphorylation enrichment (Hck) | phosphorylation enrichment (EPHB1) | SH2 binding enrichment (SHP2-C SH2) | SH2 binding enrichment (Grb2 SH2) | SH2 binding enrichment (c-Src SH2)
CDGKEYDPVEA [MAPRE2_Y167_Y162C] | 0.598 | 0.721 | 0.883 | 0.66 | 1.66 | 0.541 | 1.36 | 0.594 | 1.54 | 0.649 | 0.65 | 0.567 | 0.64 | 0.891 | 0.714 | 0.615
CDLTDYLMKIL [ACTA1_Y190_R185C] | 0.478 | 1.02 | 0.83 | 0.75 | 1.7 | 0.416 | 1.39 | 0.476 | 1.13 | 0.394 | 0.541 | 0.587 | 0.791 | 0.647 | 0.973 | 0.664
CEAIEYLESKQ [BTK_Y511_M509I] | 0.485 | 0.835 | 0.816 | 0.553 | 1.39 | 0.461 | 1.29 | 0.574 | 1.33 | 0.549 | 0.521 | 0.552 | 0.631 | 0.738 | 0.774 | 0.64
CEAMEYPESKQ [BTK_Y511_L512P] | 0.543 | 0.736 | 0.952 | 0.735 | 1.42 | 0.46 | 1.28 | 0.571 | 1.3 | 0.548 | 0.705 | 0.572 | 0.676 | 0.728 | 0.976 | 0.66
CERFSYYGMKA [SLC15A2_Y60] | 0.689 | 2.88 | 0.737 | 0.611 | 1.04 | 0.665 | 1.59 | 3.72 | 3.12 | 1.1 | 0.558 | 1.16 | 0.843 | 0.799 | 0.843 | 1.08
CGADSYEMEED [EGFR_Y316] | 0.534 | 0.899 | 0.827 | 0.72 | 1.27 | 0.549 | 1.57 | 0.536 | 1.08 | 0.483 | 0.533 | 0.705 | 0.685 | 0.652 | 0.825 | 0.797
CGTPTCLAPEV [CHEK2_Y390_Y390C] | 0.504 | 0.627 | 0.759 | 0.695 | 1.1 | 0.491 | 1.18 | 0.566 | 0.816 | 0.454 | 0.54 | 0.436 | 0.545 | 0.932 | 0.904 | 0.608
CNPLRYPVLMS [OR2T1_Y182] | 0.5 | 0.621 | 0.896 | 0.567 | 0.913 | 0.428 | 0.839 | 0.476 | 0.758 | 0.498 | 0.453 | 0.518 | 0.549 | 0.875 | 0.975 | 0.742
CNRADYSKLAS [GNE_Y22_P27S] | 0.377 | 0.47 | 0.453 | 0.572 | 0.95 | 0.441 | 1.04 | 0.367 | 0.621 | 0.369 | 0.398 | 0.376 | 0.393 | 0.625 | 0.874 | 0.938
CNTIHYNYMCN [TP53_Y234_T230N] | 0.413 | 0.653 | 0.713 | 0.581 | 0.865 | 0.521 | 0.897 | 0.586 | 0.799 | 0.532 | 0.554 | 0.428 | 0.575 | 4.68 | 0.937 | 6.74
CPYNLYAEQLS [HGD_Y40] | 3.15 | 0.988 | 0.936 | 2.18 | 1.34 | 2.67 | 1.74 | 0.741 | 1.39 | 6.33 | 1.36 | 2.39 | 2.68 | 0.737 | 0.905 | 0.705
CSGNCYLDIRP [FBN1_Y1535_R1530C] | 0.446 | 0.532 | 0.509 | 0.442 | 0.646 | 0.49 | 0.591 | 0.646 | 0.514 | 0.609 | 0.404 | 0.504 | 0.452 | 1.07 | 1.19 | 1.37
CSKRFYQLTKL [AR_Y858_R855K] | 0.454 | 0.556 | 0.587 | 0.44 | 0.888 | 0.47 | 0.75 | 0.401 | 0.706 | 0.449 | 0.492 | 0.424 | 0.545 | 0.874 | 1.08 | 0.777
CTTIHNNFMCN [TP53_Y234_Y234N_YF] | 0.507 | 0.623 | 0.593 | 0.591 | 0.974 | 0.459 | 0.879 | 0.51 | 0.95 | 0.439 | 0.558 | 0.517 | 0.606 | 1.32 | 1.15 | 1.07
CTTIHYMFMCN [TP53_Y234_N235M_YF] | 0.445 | 0.659 | 0.673 | 0.668 | 1.22 | 0.367 | 1.05 | 0.526 | 1.02 | 0.38 | 0.555 | 0.552 | 0.608 | 1.51 | 1.38 | 1
CTTIHYNFKCN [TP53_Y234_M237K_YF] | 0.405 | 0.494 | 0.51 | 0.392 | 0.75 | 0.425 | 0.795 | 0.472 | 0.545 | 0.411 | 0.386 | 0.476 | 0.381 | 1.5 | 1.23 | 1.23
CTTIHYNYICN [TP53_Y234_M237I] | 0.457 | 0.654 | 0.519 | 0.505 | 0.91 | 0.518 | 0.864 | 0.587 | 0.682 | 0.532 | 0.654 | 0.521 | 0.513 | 4.45 | 1.75 | 9.21
CTTILYNFMCN [TP53_Y234_H233L_YF] | 1.03 | 0.806 | 0.7 | 0.622 | 1.22 | 1.68 | 0.96 | 0.601 | 0.957 | 2.16 | 0.87 | 0.979 | 0.584 | 2.2 | 2.3 | 1.79
CTTIQYNFMCN [TP53_Y234_H233Q_YF] | 0.494 | 0.689 | 0.593 | 0.49 | 1.01 | 0.438 | 0.969 | 0.586 | 0.853 | 0.5 | 0.485 | 0.611 | 0.499 | 1.68 | 2.22 | 1.87
CTTLHYNFMCN [TP53_Y234_I232L_YF] | 0.391 | 0.534 | 0.545 | 0.406 | 0.78 | 0.424 | 0.718 | 0.567 | 0.758 | 0.538 | 0.708 | 0.395 | 0.361 | 1.64 | 1.53 | 2.26
CTTTHYNFMCN [TP53_Y234_I232T_YF] | 0.437 | 0.557 | 0.484 | 0.427 | 0.758 | 0.393 | 0.758 | 0.403 | 0.561 | 0.375 | 0.466 | 0.469 | 0.397 | 1.79 | 1.27 | 3.48
CTTTHYNYMCN [TP53_Y234_I232T] | 0.441 | 0.533 | 0.484 | 0.592 | 0.722 | 0.391 | 0.708 | 0.551 | 0.58 | 0.424 | 0.446 | 0.497 | 0.563 | 3.73 | 0.951 | 10.6
CTTVHYNFMCN [TP53_Y234_I232V_YF] | 0.499 | 0.673 | 0.687 | 0.52 | 0.901 | 0.384 | 0.769 | 0.472 | 0.622 | 0.499 | 0.598 | 0.445 | 0.458 | 2.38 | 1.61 | 2.66
DAVCYYRMENA [NPHS2_Y195_I192V] | 1.34 | 6.2 | 0.956 | 0.588 | 1.1 | 1.82 | 1.9 | 7.53 | 6.76 | 3.44 | 0.704 | 1.37 | 0.622 | 0.648 | 0.676 | 0.548
DAVKHYMQFQK [CNGA2_Y395_R399Q] | 0.429 | 0.449 | 0.356 | 0.301 | 0.496 | 0.473 | 0.548 | 0.348 | 0.461 | 0.485 | 0.424 | 0.552 | 0.451 | 0.781 | 0.768 | 0.62
DCAAIYGNEPE [AKR1A1_Y50] | 1.02 | 0.734 | 0.799 | 0.694 | 1.22 | 0.806 | 1.27 | 0.588 | 1.42 | 1.42 | 0.672 | 0.897 | 0.612 | 0.689 | 0.966 | 0.72
DDYDLYGGEKF [PTPN11_Y66_Y62D] | 1.7 | 0.681 | 0.871 | 2.85 | 1.1 | 0.439 | 1.51 | 0.507 | 0.963 | 2.07 | 0.957 | 2.25 | 0.915 | 0.59 | 0.76 | 0.553
DEDYLYREELA [POR_Y575] | 0.579 | 1.18 | 0.903 | 0.647 | 1.36 | 0.502 | 1.61 | 0.814 | 1.25 | 0.535 | 0.61 | 0.642 | 0.71 | 0.881 | 0.904 | 0.501
DEFLEYRRIVG [FAM221A_Y20_YF] | 0.505 | 0.551 | 0.797 | 0.439 | 1.17 | 0.493 | 0.83 | 0.466 | 0.964 | 0.507 | 0.526 | 0.537 | 0.469 | 1 | 0.945 | 0.53
